Data from patent publication US11440938B2, “Stabilized minimal coiled-coil mimetics” (NEW YORK UNIVERSITY, priority 2015, dated 2022).
Several values for one entry are separate records, joined by “and”; a condition that tells them apart may be missing. Identical values can stand only once. Like-named read-outs stand apart in the source and are kept apart here. Bridges are numbered along the chain shown (N, C = ends). Where no end group is shown, it is not given here.

Columns and labels:
[1] = Circular dichroism spectroscopy of helical conformational stability; assay type: physicochemical; conditions: 50 mM aqueous KF, pH 7.4, 20 μM peptide
[2] = target: T1, fluorescein-labeled N2B peptide (NHR2-binding motif of E-proteins) (Homo sapiens, UniProt Q99081); experiment: Fluorescence polarization direct binding assay with fluorescein-labeled N2B peptide (flu-N2B); conditions: 100 nM flu-N2B, 25° C., 10 mM Tris 20 mM NaCl pH 7.4, 0.1% pluronic F-68, triplicate, listed as NHR2482-551, read-out: Kd (binding affinity to fluorescein-labeled N2B peptide)
[3] = target: T1, fluorescein-labeled N2B peptide (NHR2-binding motif of E-proteins); conditions: Sun et al., Nature 500:93 (2013); read-out: KD with flu-N2B, literature reported; cited from earlier work

AB-1: HBS-A helix joined to peptide B by a GGSSGG linker; N-terminal HBS constraint (SEQ ID NO:3) (XELXELEWRLGGSSGGLAERIARLR; not fully specified; HBS constraint; Hydrogen bond surrogate peptide AB-1; (1)..(1) Xaa at position 1 is pentenoic acid; (4)..(4) Xaa at position 4 is N-allylalanine)
Helical character by CD (in words) [1]: weakly helical signature
Minimum at 222/208 (ratio of CD bands) [1]: 0.73
|θ222| (CD ellipticity at 222 nm) [1]: 8475

Ac-ELAELEWRL-NH2
Helical character by CD (in words) [1]: nonhelical signatures

Ac-LWERIARLR-NH2 [B]
Helical character by CD (in words) [1]: nonhelical signatures

ECAELEWRLGGSSGGLAERIARCR (disulfide 2-23; not fully specified (N-terminus, C-terminus)) [AB-3]
Helical character by CD (in words) [1]: did not provide significant helical stabilization
Minimum at 222/208 (ratio of CD bands) [1]: 0.62
|θ222| (CD ellipticity at 222 nm) [1]: 9460

cyclo(GGSSGGELAELEWRLGGSNGGLAERIARLR (macrocyclic; Cyclic peptide AB-2; (1)..(1) Position 1 and 30 are linked by a peptide bond to form a cyclic peptide; (30)..(30) Position 1 and 30 are linked by a peptide bond to form a cyclic peptide)
Helical character by CD (in words) [1]: minimal helicity
Minimum at 222/208 (ratio of CD bands) [1]: 0.62
|θ222| (CD ellipticity at 222 nm) [1]: 8950

B1: NHR2: native GST-tagged NHR2 coiled-coil domain (482-551) of AML1-ETO, expressed in E. coli (protein, UniProt Q06455 482-551, looked up, fragment)
chain: ERAKMERTVAEAKRQAAEDALAVINQQEDSSESCWNCGRKASETCSGCNTARYCGSFCQHKDWEKHHHIC
modifications: NHR2 coiled-coil domain GST tag
notes: native GST-tagged NHR2 coiled-coil domain (482-551) of AML1-ETO, expressed in E. coli
Kd [2]: 356 µM and 363 µM
Kd [3]: 380 ± 18 µM
